In US20220135638A1 (Takeda / Millennium, published 2022):
Numbered stars: 1 amine (or outer) side, 2 acyl side, 3 side chain; on linkers, the order of the positions; unused ones are H or OH. Square brackets hold non-standard residues; d marks the D form. Primed or numbered codes have the meaning given here. Side chains are listed from the residue outwards. Ends that are not written are not given here. * marks the point of attachment. C20 diacid = O=C(O)CCCCCCCCCCCCCCCCCCC(=O)*; C18 diacid = O=C(O)CCCCCCCCCCCCCCCCC(=O)*; C16 diacid = O=C(O)CCCCCCCCCCCCCCC(=O)*; γGlu = O=C(O)[C@H](CCC(=O)[*:2])N[*:1]; Iva = CC[C@](C)(N)C(=O)O; PEG3′ = not defined here; Abu = CC[C@H](N)C(=O)O; Aib = CC(C)(N)C(=O)O

Experiments:
[1] = target: T1, full-length human GIPR (GenBank NM_000164) with an N-terminal FLAG tag on HEK-293T cells (human), P48546; assay: cell-based or functional assay
T1 chain: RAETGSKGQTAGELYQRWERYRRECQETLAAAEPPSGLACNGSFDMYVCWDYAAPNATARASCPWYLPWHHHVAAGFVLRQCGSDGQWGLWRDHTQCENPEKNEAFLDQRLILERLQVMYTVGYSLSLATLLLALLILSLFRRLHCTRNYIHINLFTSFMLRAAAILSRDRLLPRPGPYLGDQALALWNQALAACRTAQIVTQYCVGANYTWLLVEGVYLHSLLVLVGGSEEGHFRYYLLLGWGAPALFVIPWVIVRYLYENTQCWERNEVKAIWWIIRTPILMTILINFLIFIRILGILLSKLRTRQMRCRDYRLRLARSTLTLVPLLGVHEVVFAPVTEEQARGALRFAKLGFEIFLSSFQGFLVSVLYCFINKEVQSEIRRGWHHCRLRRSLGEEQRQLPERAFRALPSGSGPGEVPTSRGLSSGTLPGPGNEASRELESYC

[2] = target: T2, full-length human GLP-1R (GenBank NM_002062) with an N-terminal FLAG tag on HEK-293T cells (human), P43220; assay: cell-based or functional assay
T2 chain: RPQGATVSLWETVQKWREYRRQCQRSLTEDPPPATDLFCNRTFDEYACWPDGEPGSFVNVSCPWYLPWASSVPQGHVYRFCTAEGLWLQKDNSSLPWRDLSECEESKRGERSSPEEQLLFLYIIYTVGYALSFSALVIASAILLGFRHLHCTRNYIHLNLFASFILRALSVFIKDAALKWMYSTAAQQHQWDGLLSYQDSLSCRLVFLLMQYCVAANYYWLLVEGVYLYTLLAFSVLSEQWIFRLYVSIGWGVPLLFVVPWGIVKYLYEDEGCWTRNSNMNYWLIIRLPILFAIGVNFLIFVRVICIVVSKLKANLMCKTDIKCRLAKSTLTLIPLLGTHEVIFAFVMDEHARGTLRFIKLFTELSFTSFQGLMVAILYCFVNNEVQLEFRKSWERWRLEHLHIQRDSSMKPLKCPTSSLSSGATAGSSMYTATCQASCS

Binder	GIP EC50(pM) [1] [pM]	GLP EC50 [2] [nM]
Y[Aib]EGTFISDYSIALDR[Aib]HQ[Aib]NFVNW[Iva]LAQRPSK([PEG3′-γGlu-C18 diacid])GAPPPS (ends and bridges not checked) [Compound No. 516]	1.02	> 1000
Y[Aib]EGTFISDYSIALDR[Aib]HQ[Aib]NFVNW[Iva]LAQRPSK([PEG3′-γGlu-C20 diacid])GAPPPS (ends and bridges not checked) [Compound No. 517]	1.99	> 1000
Y[Aib]EGTFISDYSIALDR[Aib]HQ[Aib]NFVNW[Iva]LAQRPSSK([PEG3′-γGlu-C16 diacid])APPPS (ends and bridges not checked) [Compound No. 518]	0.61	> 1000
Y[Aib]EGTFISDYSIALDR[Aib]HQ[Aib]NFVNW[Iva]LAQRPSSK([PEG3′-γGlu-C18 diacid])APPPS (ends and bridges not checked) [Compound No. 519]	1.26	> 1000
Y[Aib]EGTFISDYSIALDR[Aib]HQ[Aib]NFVNW[Iva]LAQRPSSK([PEG3′-γGlu-C20 diacid])APPPS (ends and bridges not checked) [Compound No. 520]	2.68	> 1000
Y[Aib]EGTFISDYSIALDR[Aib]HQ[Aib]NFVNW[Iva]LAQRPSSGK([PEG3′-γGlu-C16 diacid])PPPS (ends and bridges not checked) [Compound No. 521]	0.9	> 1000
Y[Aib]EGTFISDYSIALDR[Aib]HQ[Aib]NFVNW[Iva]LAQRPSSGK([PEG3′-γGlu-C18 diacid])PPPS (ends and bridges not checked) [Compound No. 522]	1.51	> 1000
Y[Aib]EGTFISDYSIALDR[Aib]HQ[Aib]NFVNW[Iva]LAQRPSSGK([PEG3′-γGlu-C20 diacid])PPPS (ends and bridges not checked) [Compound No. 523]	2.98	> 1000
Y[Aib]EGTFISDYSIALDR[Aib]HQ[Aib]NFVNW[Iva]LAQRPSSGAK([PEG3′-γGlu-C16 diacid])PPS (ends and bridges not checked) [Compound No. 524]	1.29	> 1000
Y[Aib]EGTFISDYSIALDR[Aib]HQ[Aib]NFVNW[Iva]LAQRPSSGAK([PEG3′-γGlu-C18 diacid])PPS (ends and bridges not checked) [Compound No. 525]	0.82	> 1000
Y[Aib]EGTFISDYSIALDR[Aib]HQ[Aib]NFVNW[Iva]LAQRPSSGAK([PEG3′-γGlu-C20 diacid])PPS (ends and bridges not checked) [Compound No. 526]	1.5	> 1000
Y[Aib]EGTFISDYSIALDR[Aib]HQ[Aib]NFVNW[Iva]LAQRPSSGAPK([PEG3′-γGlu-C16 diacid])PS (ends and bridges not checked) [Compound No. 527]	0.37	479
Y[Aib]EGTFISDYSIALDR[Aib]HQ[Aib]NFVNW[Iva]LAQRPSSGAPK([PEG3′-γGlu-C18 diacid])PS (ends and bridges not checked) [Compound No. 528]	0.87	> 1000
Y[Aib]EGTFISDYSIALDR[Aib]HQ[Aib]NFVNW[Iva]LAQRPSSGAPK([PEG3′-γGlu-C20 diacid])PS (ends and bridges not checked) [Compound No. 529]	1.3	> 1000
Y[Aib]EGTFISDYSIALDR[Aib]HQ[Aib]NFVNW[Iva]LAQRPSSGAPPK([PEG3′-γGlu-C16 diacid])S (ends and bridges not checked) [Compound No. 530]	0.36	> 1000
Y[Aib]EGTFISDYSIALDR[Aib]HQ[Aib]NFVNW[Iva]LAQRPSSGAPPK([PEG3′-γGlu-C18 diacid])S (ends and bridges not checked) [Compound No. 531]	1.02	> 1000
Y[Aib]EGTFISDYSIALDR[Aib]HQ[Aib]NFVNW[Iva]LAQRPSSGAPPK([PEG3′-γGlu-C20 diacid])S (ends and bridges not checked) [Compound No. 532]	2.05	> 1000
Y[Aib]EGTFISDYSIALDR[Aib]HQ[Aib]NFVNW[Iva]LAQRPSSGAPPPK([PEG3′-γGlu-C16 diacid]) (ends and bridges not checked) [Compound No. 533]	0.59	776
Y[Aib]EGTFISDYSIALDR[Aib]HQ[Aib]NFVNW[Iva]LAQRPSSGAPPPK([PEG3′-γGlu-C18 diacid]) (ends and bridges not checked) [Compound No. 534]	0.81	> 1000
Y[Aib]EGTFISDYSIALDR[Aib]HQ[Aib]NFVNW[Iva]LAQRPSSGAPPPK([PEG3′-γGlu-C20 diacid]) (ends and bridges not checked) [Compound No. 535]	1.54	> 1000
Y[Aib]EGTFISDYSIALDR[Aib]HQ[Aib]NFVNW[Iva]LAQRK([Abu-γGlu-C18 diacid])SSGAPPPS (ends and bridges not checked) [Compound No. 537]	1.32	> 1000
Y[Aib]EGTFISDYSIALDR[Aib]HQ[Aib]NFVNW[Iva]LAQRPK([Abu-γGlu-C18 diacid])SGAPPPS (ends and bridges not checked) [Compound No. 538]	1.8	> 1000
Y[Aib]EGTFISDYSIALDR[Aib]HQ[Aib]NFVNW[Iva]LAQRPSK([Abu-γGlu-C18 diacid])GAPPPS (ends and bridges not checked) [Compound No. 539]	2.66	> 1000
Y[Aib]EGTFISDYSIALDR[Aib]HQ[Aib]NFVNW[Iva]LAQRPSSK([Abu-γGlu-C18 diacid])APPPS (ends and bridges not checked) [Compound No. 540]	3.01	> 1000
Y[Aib]EGTFISDYSIALDR[Aib]HQ[Aib]NFVNW[Iva]LAQRPSSGK([Abu-γGlu-C18 diacid])PPPS (ends and bridges not checked) [Compound No. 541]	0.73	> 1000
Y[Aib]EGTFISDYSIALDR[Aib]HQ[Aib]NFVNW[Iva]LAQRPSSGAK([Abu-γGlu-C18 diacid])PPS (ends and bridges not checked) [Compound No. 542]	1.21	> 1000
Y[Aib]EGTFISDYSIALDR[Aib]HQ[Aib]NFVNW[Iva]LAQRPSSGAPK([Abu-γGlu-C18 diacid])PS (ends and bridges not checked) [Compound No. 543]	0.72	> 1000
Y[Aib]EGTFISDYSIALDR[Aib]HQ[Aib]NFVNW[Iva]LAQRPSSGAPPK([Abu-γGlu-C18 diacid])S (ends and bridges not checked) [Compound No. 544]	0.94	> 1000
